Patent US20180362668A1 (JIANGSU ALPHAMAB BIOPHARMACEUTICALS, published 2018)

Target: the molecule itself
Assay: non-reducing SDS-PAGE densitometry of Protein A-purified co-transfection product; chain A:chain B vectors 1:1
Description: The cotransfection ratio of recombinant expression vector of the chain A to that of the chain B was 1:1.

| Protein | ScFv-Fc homodimer (%) | Proportion of Fc homodimer (%) |
| --- | --- | --- |
| ScFv-Fc fusion protein chain A with Y349C + T366W + K409A + L368E (Fc fusion, Positions are EU index; also called combination 9 chain A) EVQLLESGGGVVQPGRSLRLSCIASGFTFSSYPMTWVRQAPGKGLEWVASISYDGSYKYKADSMKGRLTISRDNSKNTLYLEMNSLTAEDTAVYYCARTAFFNAYDFWGQGTLVTVSSASTKGPSVGGGGSGGGGSEIVMTQSPATLSVSPGERATLSCRASQSVRSNLAWYQQKPGQAPRLLIYAASTRATGIPARFSGSGSGTEFTLTISSLQSEDFAVYYCQQYNEWFRTSGQGTKVEIKRDKTHTCPPCPAPELLGGPSVFLFPPKPKDTLMISRTPEVTCVVVDVSHENPEVKFNWYVDGVEVHNAKTKPREEQYNSTYRVVSVLTVLHQDWLNGKEYKCKVSNKALPAPIEKTISKAKGQPREPQVCTLPPSRDELTKNQVSLWCEVKGFYPSDIAVEWESNGQPENNYKTTPPVLDSDGSFFLYSALTVDKSRWQQGNVFSCSVMHEALHNHYTQKSLSLSPGK | 39 |  |
| ScFv-Fc fusion protein chain A with Y349C + T366W + F405K + K360E + Q347E (Fc fusion, Positions are EU index; also called combination 5 chain A) EVQLLESGGGVVQPGRSLRLSCIASGFTFSSYPMTWVRQAPGKGLEWVASISYDGSYKYKADSMKGRLTISRDNSKNTLYLEMNSLTAEDTAVYYCARTAFFNAYDFWGQGTLVTVSSASTKGPSVGGGGSGGGGSEIVMTQSPATLSVSPGERATLSCRASQSVRSNLAWYQQKPGQAPRLLIYAASTRATGIPARFSGSGSGTEFTLTISSLQSEDFAVYYCQQYNEWFRTSGQGTKVEIKRDKTHTCPPCPAPELLGGPSVFLFPPKPKDTLMISRTPEVTCVVVDVSHENPEVKFNWYVDGVEVHNAKTKPREEQYNSTYRVVSVLTVLHQDWLNGKEYKCKVSNKALPAPIEKTISKAKGQPREPEVCTLPPSRDELTENQVSLWCLVKGFYPSDIAVEWESNGQPENNYKTTPPVLDSDGSFKLYSKLTVDKSRWQQGNVFSCSVMHEALHNHYTQKSLSLSPGK | 14 |  |
| ScFv-Fc fusion protein chain A with Y349C + T366W + F405K + Q347R (Fc fusion, Positions are EU index; also called combination 6 chain A) EVQLLESGGGVVQPGRSLRLSCIASGFTFSSYPMTWVRQAPGKGLEWVASISYDGSYKYKADSMKGRLTISRDNSKNTLYLEMNSLTAEDTAVYYCARTAFFNAYDFWGQGTLVTVSSASTKGPSVGGGGSGGGGSEIVMTQSPATLSVSPGERATLSCRASQSVRSNLAWYQQKPGQAPRLLIYAASTRATGIPARFSGSGSGTEFTLTISSLQSEDFAVYYCQQYNEWFRTSGQGTKVEIKRDKTHTCPPCPAPELLGGPSVFLFPPKPKDTLMISRTPEVTCVVVDVSHENPEVKFNWYVDGVEVHNAKTKPREEQYNSTYRVVSVLTVLHQDWLNGKEYKCKVSNKALPAPIEKTISKAKGQPREPRVCTLPPSRDELTKNQVSLWCLVKGFYPSDIAVEWESNGQPENNYKTTPPVLDSDGSFKLYSKLTVDKSRWQQGNVFSCSVMHEALHNHYTQKSLSLSPGK | 14 |  |
| Fc protein chain B with D356C + T366S + L368A + Y407V + K360E + Q347E (other, also called combination 6 chain B) DKTHTCPPCPAPELLGGPSVFLFPPKPKDTLMISRTPEVTCVVVDVSHEDPEVKFNWYVDGVEVHNAKTKPREEQYNSTYRVVSVLTVLHQDWLNGKEYKCKVSNKALPAPIEKTISKAKGQPREPEVYTLPPSRCELTENQVSLSCAVKGFYPSDIAVEWESNGQPENNYKTTPPVLDSDGSFFLVSKLTVDKSRWQQGNVFSCSVMHEALHNHYTQKSLSLSPGK |  | 24 |
| ScFv-Fc fusion protein chain A with Y349C + T366W + K409A + K360E + Q347E (Fc fusion, Positions are EU index; also called combination 7 chain A) EVQLLESGGGVVQPGRSLRLSCIASGFTFSSYPMTWVRQAPGKGLEWVASISYDGSYKYKADSMKGRLTISRDNSKNTLYLEMNSLTAEDTAVYYCARTAFFNAYDFWGQGTLVTVSSASTKGPSVGGGGSGGGGSEIVMTQSPATLSVSPGERATLSCRASQSVRSNLAWYQQKPGQAPRLLIYAASTRATGIPARFSGSGSGTEFTLTISSLQSEDFAVYYCQQYNEWFRTSGQGTKVEIKRDKTHTCPPCPAPELLGGPSVFLFPPKPKDTLMISRTPEVTCVVVDVSHENPEVKFNWYVDGVEVHNAKTKPREEQYNSTYRVVSVLTVLHQDWLNGKEYKCKVSNKALPAPIEKTISKAKGQPREPEVCTLPPSRDELTENQVSLWCLVKGFYPSDIAVEWESNGQPENNYKTTPPVLDSDGSFFLYSALTVDKSRWQQGNVFSCSVMHEALHNHYTQKSLSLSPGK | 24 |  |
